Earlier results on one substance are cited in PMC12694644.

Usually Kd stands for the free concentration of one partner at which half of the binding sites on the other are occupied at equilibrium, for simple one-to-one binding.

The target of this data set is IL-23 p19 (Homo sapiens) (UniProt Q9NPF7).
Chain of IL-23 p19 (Homo sapiens) (Q9NPF7 20-189): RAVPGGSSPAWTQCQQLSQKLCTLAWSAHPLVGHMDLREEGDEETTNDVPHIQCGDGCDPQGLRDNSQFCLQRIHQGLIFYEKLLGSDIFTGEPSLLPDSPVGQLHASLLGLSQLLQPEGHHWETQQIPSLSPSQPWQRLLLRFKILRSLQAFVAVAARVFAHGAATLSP

Guselkumab: the Kd is 3.3 pM.
